The target in experiment [1] is HLA-B*08:01. Kind of experiment: IEDB peptide-MHC binding, purified MHC/competitive/radioactivity; filed as Kd, often an IC50 or EC50 that approximates it; ≥ and ≤ were set here for values at or beyond the usual limits of such assays.
The target of a further experiment is HLA-B*57:01. The description is as above.
The next experiment has as its target HLA-A*01:01. Kind of experiment: IEDB peptide-MHC binding, purified MHC/direct/fluorescence; filed as Kd, often an IC50 or EC50 that approximates it; ≥ and ≤ were set here for values at or beyond the usual limits of such assays.
For experiment [2], the target named is HLA-A*02:01. Described as above.
A further experiment has as its target HLA-A*03:01. Described as above.
Experiment [3] has as its target HLA-A*11:01. Described as above.
The target of the next experiment is HLA-A*24:03. The description is as above. Conditions: source organism: Toxoplasma gondii.
The target in the next experiment is HLA-A*26:01. Described as above.
In the next experiment the target is HLA-A*69:01. The description is as above.
The target in a further experiment is HLA-B*07:02. Described as above.
The target in experiment [4] is HLA-B*08:01. The description is as above.
Another experiment deals with HLA-B*15:01. The description is as above.
The target in a further experiment is HLA-B*27:05. The experiment is described as above.
A further experiment has as its target HLA-B*40:01. The experiment is described as above.
A further experiment deals with HLA-B*44:02. The experiment is described as above.
In the next experiment the target is HLA-B*58:01. The description is as above.
For experiment [5], the target named is HLA-A*11:01. Kind of experiment: IEDB peptide-MHC binding, purified MHC/competitive/fluorescence; ≥ and ≤ were set here for values at or beyond the usual limits of such assays.
The target of the next experiment is HLA-A*24:02. The experiment is described as above.
The target of the next experiment is HLA-A*31:01. Briefly: IEDB peptide-MHC binding, purified MHC/direct/fluorescence; filed as Kd, often an IC50 or EC50 that approximates it; ≥ and ≤ were set here for values at or beyond the usual limits of such assays.
Another experiment concerns the target HLA-A*02:03. Kind of experiment: IEDB peptide-MHC binding, purified MHC/competitive/radioactivity; filed as Kd, often an IC50 or EC50 that approximates it; ≥ and ≤ were set here for values at or beyond the usual limits of such assays. The conditions noted are these: source organism: Dengue virus 1 Brazil/97-11/1997.
For experiment [6], the target named is HLA-A*02:01. Briefly: IEDB peptide-MHC binding, purified MHC/competitive/fluorescence; ≥ and ≤ were set here for values at or beyond the usual limits of such assays. Conditions: source organism: Zaire ebolavirus.
[7] abbreviates: source organism: Vaccinia virus WR.
[8] abbreviates: source organism: Dengue virus 1 Brazil/97-11/1997.
Setting [9] is: source organism: Toxoplasma gondii.
Setting [10] is: source organism: Zaire ebolavirus.
The mark [11] stands for this setting: source organism: Vibrio parahaemolyticus.
Where [12] appears, read: source organism: Campylobacter jejuni RM1221.

A word on the Kd: it is the free concentration of one partner at which half of the binding sites on the other are occupied at equilibrium, for simple one-to-one binding. Take ALMRRIAVV: the equilibrium dissociation constant (Kd) in the experiment with HLA-B*08:01 [1] (setting [7]) is 1.35 µM.
ATRLENIMW: the equilibrium dissociation constant (Kd) with HLA-B*57:01 (setting [8]) came to 0.00231 µM.
For AYMDRKSFK, the equilibrium dissociation constant (Kd) with HLA-A*01:01 (setting [9]) was not below 20 µM; in the experiment with HLA-A*02:01 [2] (setting [9]), not below 20 µM; in the experiment with HLA-A*03:01 (setting [9]) it was 14.7 µM; with HLA-A*11:01 [3] (setting [9]) it was not below 5 µM; in the experiment with HLA-A*24:03, 2.43 µM; with HLA-A*26:01 (setting [9]), not below 20 µM. Besides, the dissociation constant Kd with HLA-A*69:01 (setting [9]), with HLA-B*07:02 (setting [9]), with HLA-B*08:01 [4] (setting [9]), with HLA-B*15:01 (setting [9]), in the experiment with HLA-B*27:05 (setting [9]) and in the experiment with HLA-B*40:01 (setting [9]) was not below 20 µM each time. Also, the dissociation constant Kd in the experiment with HLA-B*44:02 (setting [9]) and in the experiment with HLA-B*58:01 (setting [9]) was not below 20 µM throughout.
In general, IC50 refers to the midpoint of a concentration-inhibition curve. Read a high IC50 as a need for much substance. In the experiment with HLA-A*11:01 [5] (source organism: Sudan ebolavirus), CPGDYAFHK came in with a half-maximal inhibitory concentration (IC50) of 55.3 µM.
DAVLYYHMM: in the experiment with HLA-A*24:02 (setting [10]), the half-maximal inhibitory concentration (IC50) worked out at 3.14 µM.
On the same count and under the same terms, the result for DNTQSEHSF reads 49.7 µM.
On to DYRFRFRSV, for which the equilibrium dissociation constant (Kd) in the experiment with HLA-B*08:01 [1] (setting [7]) came to 0.683 µM.
Consider EEDLPVTWR, for which the dissociation constant Kd with HLA-A*01:01 (setting [11]), with HLA-A*02:01 [2] (setting [11]), in the experiment with HLA-A*03:01 (setting [11]), with HLA-A*11:01 [3] (setting [11]), with HLA-A*26:01 (setting [11]) and with HLA-A*31:01 (setting [11]) was not below 20 µM in each case. The Kd with HLA-A*69:01 (setting [11]), in the experiment with HLA-B*07:02 (setting [11]), with HLA-B*08:01 [4] (setting [11]), with HLA-B*15:01 (setting [11]), in the experiment with HLA-B*27:05 (setting [11]) and in the experiment with HLA-B*40:01 (setting [11]) was not below 20 µM throughout. For the same sequence, the dissociation constant Kd in the experiment with HLA-B*44:02 (setting [11]) and with HLA-B*58:01 (setting [11]) was not below 20 µM in each case.
Turning to EYRFLVINR, the IC50 with HLA-A*11:01 [5] (setting [7]) is not below 490 µM; with HLA-A*24:02 (setting [7]), 57.6 µM.
As to FFKFSFMYI, in the experiment with HLA-B*08:01 [1] (setting [7]), the Kd is 0.84 µM.
Take GLNSRSTSL: the figures for the Kd with HLA-A*02:03 and with HLA-B*08:01 [1] (setting [8]) were 0.0164 µM and 0.0147 µM, respectively.
For GSRAIWYMW, in the experiment with HLA-B*57:01 (source organism: Dengue virus 4 Philippines/H241/1956), the Kd amounted to 0.00172 µM.
As for GTSITQKGII, in the experiment with HLA-B*57:01 (setting [8]), the equilibrium dissociation constant (Kd) is 9.33 µM.
Turning to HRRLRNKRL, the dissociation constant (Kd) in the experiment with HLA-B*08:01 [1] (setting [7]) was determined as 0.0284 µM.
As to ICGLRQLAN, in the experiment with HLA-A*24:02 (setting [10]), the half-inhibitory concentration (IC50) is 16.2 µM.
As for IILFQRTFS, the IC50 in the experiment with HLA-A*02:01 [6] was not below 81.4 µM; with HLA-A*24:02 (setting [10]), not below 294 µM.
Take IYDYLRLLY: the dissociation constant Kd is 5.13 µM with HLA-A*01:01 (setting [12]); not below 20 µM with HLA-A*02:01 [2] (setting [12]); not below 20 µM in the experiment with HLA-A*03:01 (setting [12]); not below 20 µM in the experiment with HLA-A*31:01 (setting [12]); not below 20 µM in the experiment with HLA-A*69:01 (setting [12]); not below 20 µM with HLA-B*07:02 (setting [12]). In addition, the dissociation constant Kd with HLA-B*08:01 [4] (source organism: Clostridium botulinum NCTC 2916), with HLA-B*15:01 (setting [12]), with HLA-B*27:05 (setting [12]), in the experiment with HLA-B*40:01 (setting [12]), with HLA-B*44:02 (setting [12]) and in the experiment with HLA-B*58:01 (setting [12]) was not below 20 µM in each case.
As for KDVSYNDYF, the IC50 with HLA-A*24:02 (source organism: Vaccinia virus) amounted to 41.4 µM.
For the sequence KMRPMFAVGL, the Kd with HLA-B*08:01 [1] (setting [8]) was determined as 4.58 µM.

These data come from the Immune Epitope Database (IEDB).
